This data set can be described thus: yeast display, Sf9 membrane polyspecificity reagent, FACS + sequencing; frameworks hold sequencing errors. In outline:
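Synthetic nanobody libraries on Saccharomyces cerevisiae BJ5465 were galactose-induced for 36–48 hours, stained 1 hour at 4 °C with 10% biotinylated, detergent-solubilized Sf9 membrane reagent and enriched on streptavidin microbeads. FACS then separated cells into low and high (top ~1%) gates by anti-HA (expression) and streptavidin (reagent binding) fluorescence. Genes were colony-PCR amplified, MiSeq 2 × 250 sequenced and CDR-length filtered. A clone's polyreactivity label is that of its gate of origin.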
For “QVQLVESGGCLVQAGGSLRLSCAASGSIFLSNAMGWYRQAPGKERELVATIDDNGGSTYYADSVKGRFTISRDNAKNTVYLQMNSLKPEDTAVYYCAKQVRVWDLYYYLEEGYWGQGTQVTVSS”, the “polyreactivity (PSR sort gate)” value was “low polyreactivity”. As for “QVQLVESGGCLVQAGGSLRLSCAASGSIFLTYAMGWYIQAPGKERELVASSTGGGSTNYADSVKGRFTSSRDNAKNTVYLQRNSLKPEDTAVYYCAKKAIVSDQWDKYDYWGQGTQVTVSS”, the entry is “low polyreactivity”; as for “QVQLVESGGCLVQAGGSLRLSCAASGSIFRYYNMGWYRQAPGKERELVAVINWSGGSTYYADSVKWRFTISRDNAKNTVYLQMNSLKPEDCAVYYCAICFWRTRRYGADPRTKYDYWGLGTQVTVSS”, “high polyreactivity”.

For “QVQLVESGGCLVQAGGSLRLSCAASGSIFSWYGMSWYRQAPGKERELVAAITWGGGSTYYADSVKGRFTISRDNAKNSVYLQMNSLKPEDTAVYYCEVDYWGQCTQVTVSS”, the “polyreactivity (PSR sort gate)” value is recorded as “low polyreactivity”. “QVQLVESGGCLVQAGGSLRLSCAASGSIRSYAMGWYRQAPGKERELVAAITRSGGSTYYADSVKGRFTISRDNAKNTVYLPMKSLKPEDTAVYYCAARYTYSYPLFGSWGQGTQVTVSS”: the “polyreactivity (PSR sort gate)” value was “high polyreactivity”. Take “QVQLVESGGCLVQAGGSLRLSCAASGSSFTSNSMGWSRHAPGKERELVAAISSCGGSTYYADSVKGRFTISRDNATQTVYIQMNSLKPEDTAVYYCAADVHWPYRYDYWGQGTQVTVSS”: the “polyreactivity (PSR sort gate)” value is “low polyreactivity”. As for “QVQLVESGGCLVQAGGSLRLSCAASGSTFGLYAKGLYRQAPGTEREFVAAITSTGGSTYFADSVKGRFTISRDNAQNTVYLQLNSLKPEDTAVYDSYADFFVWRYPHYLIFGYWGQGTQVTVSS”, the entry is “low polyreactivity”; as for “QVQLVESGGCLVQAGGSLRLSCAASGSTFGYNTMGWYRQAPGKERELDAAITGTGRTNYADSVKGRFTISRDNAKNNVYLQMYSLKPEDTAVYYCNARQAGTRYKYGYYGRYYWGHGTQVTVSS”, “high polyreactivity”; as for “QVQLVESGGCLVQAGGSLRLSCAASGSTFNWNAMGWYRQAPGKERELVAAITSSGARTRYADSVKGRFTISRDNAKNTVYLQMNSLKPEDTAVYYCAAYVYISPSGYYYWGLGTQVTVSS”, “low polyreactivity”.

Take “QVQLVESGGCLVQAGGSLRLSCAASGSTFRFYAMGWYRQAPGKERELVATISSSGGTTYYADSVKGRFTISRDNAKNTVYLQMNSLKPEDTAVSYCAKDAFGWGRVYYYRSGYWGHGTQVTVSS”: the “polyreactivity (PSR sort gate)” value is recorded as “high polyreactivity”. Under “QVQLVESGGCLVQAGGSLRLSCAASGSTFRYYAMGWYRQAPGKESELVARITSRAGRTYYADSVKGRFTISRDIAKNTVYLQMNSLKPEDTAVYFCNTRDFSGYVHALSLYDYWGQGTQVTVSS” stands “high polyreactivity”; under “QVQLVESGGCLVQAGGSLRLSCAASGSTFVYNTMGWYRQAPGKERELVASISSDGNTYYADSVKGRFTISRDNAKNTVYLQMNSLKPEDTAVYYCAARYYYDWRFVGYDYWGQGTQVTVSS”, “low polyreactivity”. For the sequence “QVQLVESGGCLVQAGGSLRLSCAASGYIFQWYDMGWYRPAPGKERELVAAISVTTGSTYYADSVKGRFTISRDNAQKTVYLQMNSLKPEDTAVYYCAAVSWYRHDMYYWGHGTQVTVSS”, the “polyreactivity (PSR sort gate)” value was “low polyreactivity”.

For the sequence “QVQLVESGGCLVQAGGSLRLSCAASRRIYYYTMGWYRQPPGKERELGATITSSGSSTYYADSVKGRFTISRDNAMNTVYLQMNSLKPEDTAVYYCAAGDRRYQRRYYYWGQGTQVTVSS”, the “polyreactivity (PSR sort gate)” value is given as “high polyreactivity”. Regarding “QVQLVESGGCLVQAGGSLRLSCAGSGSIFDGYAMGWYRQAPGKERELVADINNGADTYYADSVKGRFTISRDKAKNTVYLQMNTLKTEDTAVYYCAARYGTDTDIQNVARYDYWGQGTQVTVSS”, the “polyreactivity (PSR sort gate)” value is reported as “low polyreactivity”. For the sequence “QVQLVESGGCLVQAGGSLRLSCASSGITFFEYAMGCYRQAPGKERELVAVITSGGSTNYADSVKGRFTISRDNAKNTVYLQMNSLKPEDTAVYYCNARVVKYRWWYDYYYWGQGTQVTVSS”, the “polyreactivity (PSR sort gate)” value is listed as “low polyreactivity”. As for “QVQLVESGGCLVQAGGSLRLSCDASGSIFYRNVIGWYRQAPGKERELVATISRGGTTNYADSVKGRFTISRDNAKNTVYLQMNSLKPEDTAVYYCAADASSKLYDYWGQGTQVTVSS”, the entry is “low polyreactivity”; as for “QVQLVESGGCLVQAGGSLRLSCPASGSTIGKYAMGWYRQAPRKERELFATITVSGGNTNYADSVKGRITISRDNAKITVYLQMNSLKPEDTAVYYCAARKYVAGHKYIMKYWGQGTQVTVSS”, “low polyreactivity”. In the case of “QVQLVESGGCLVQAGGSLRLSCSASGRTFNWKAMGWYRPAPGKERELVAVITSSGTRTYYADSVKGRFTISRDNAKNTVSLQMNSLKPEDTAVYYCANGETYTGPNSRYGQWKKVYYWGQGTQVTVSS”, the “polyreactivity (PSR sort gate)” value is “low polyreactivity”.

On to “QVQLVESGGCLVQAGGSLRLSSAASGFIFYYNAMGWYRQEPGKESELVATIRGSGGSTYYADSVKGRFTISRDNAKNTVYLQMNSLKPEDTAVYYCAASVQYRRLKKFYYWGQGTQVTVSS”, for which the “polyreactivity (PSR sort gate)” value is “high polyreactivity”. For “QVQLVESGGCLVQAGGSLRLSSAASGITFYLYAMGWYRKAPGKVRELVATISRSGGSTYADSVKGRFTISRDNAKNTVYLQMHSMKPEDTAVYYCNADLLSTGFIAYDYWGQGTQVTVSS”, the “polyreactivity (PSR sort gate)” value was “low polyreactivity”. Under “QVQLVESGGCLVQAGGSLRLSSAPSGSTFPVNAMGWYRQAAGKERELVAAITYRDGDTYYADSVKGRFTISRDYAKNTVYLQMNSLKPEDTAVYYCNADVGRHGKNSHMDYWGHGTQVTVSS” stands “low polyreactivity”. As for “QVQLVESGGCLVQAGGTLRLSCAASGFTFGNNGMGWYRQAPGKERELVATISWSGGSTDADSVKGRFTISRDNAKNTVYLQMNSLKPEDTAVSYCAARPRWYFFSYGRQDDGSWGQGTQVTVSS”, the entry is “low polyreactivity”. For “QVQLVESGGCLVQAGGTLRLSCAASGFTIRSNAMGWYRQAPGKERELVADISHGGGTSYADSVKGRFTISRDNAKNTVYLQRNSLKPEDTAVYYCAADLSTYVNYWWEYYYWGQGSQVTVSS”, the “polyreactivity (PSR sort gate)” value was “low polyreactivity”.

“QVQLVESGGCLVQAGGTLRLSCAASGSIFWAYAMGWYRQAPGKERELVAAISRGGTTTYADSVKGRFTISRDNAKNTVYLQMNSLKPEDTAVYYCARRAVYSKRRYDYWGQGTQVTVSS”: the “polyreactivity (PSR sort gate)” value is reported as “low polyreactivity”.

In the case of “QVQLVESGGCLVQAVGSLRLSCAASAFTFTQYGRGWYRQASGKEREFVATIRFSGDTTYYADSVKRRFTITRDHAKNTAYLQMNRLKPEDPAVYYCNADNRAFFVYPGSNRYDSWGQGTQVTVSS”, the “polyreactivity (PSR sort gate)” value is recorded as “low polyreactivity”. Regarding “QVQLVESGGCLVQEGGSLRLSCAASGFTFRWYTMGWYRQAPGKERELVASIRYGGGSTYYADSVKGRFTISRDNAKNTVYLQMNSLKPEDTAVYYCAAYVRTYRGYYWKAFDYWGQGTQVTVSS”, the “polyreactivity (PSR sort gate)” value is listed as “high polyreactivity”. Regarding “QVQLVESGGCLVQSGGSLRLSCAASGIIISSYAMGWYRQAPGKERELVADIRSGGSTNYADSVKGRFTISRDNAKNTVYLQMNSLKPEDTAVSDCNADTFQWWDSAAVYVIVKYGYWGHGTQVTVSS”, the “polyreactivity (PSR sort gate)” value is “low polyreactivity”. With “QVQLVESGGDLVQAGASLRLSCASSGRTFRHNALGRYRQAPGKERYLVATISNRGGTTYYADSVKGRFTISRDNAKNTVYLQMNSLKPEDTAVYYCAARVGVLGYVRYGYWGQGTQVTVSS”, the “polyreactivity (PSR sort gate)” value is “low polyreactivity”. As for “QVQLVESGGDLVQAGGSLRLSCAASGITFVYNAMGWYRQAPGKERELVAGITWSGSSTYYADSVKGRFTISRDNAKNTVYLQMNSLKPEDTAVYYCAAYLYDRTTRYTYYYWGQGTQVTVSS”, the entry is “high polyreactivity”. As for “QVQLVESGGDLVQAGGSLRLSCDASGRTCSANGMGSYRQSTGKERELVAAITRSGGITYYADSVKGRFTISRDNAKNTVYLQMNSLNPEDTADYYCAASVYSLSRRSWMDYWGQGTQVTVST”, the entry is “low polyreactivity”; as for “QVQLVESGGGEVQAGGSLRLICAASGRTFQLNAMGWYRQAPGKERELVAAISTRGGSTYYADSVKGRFTISRDNAKNTVYLQMISLKPEDTAVYYCAARVWTANYEMDLWGQGTQVTVSS”, “high polyreactivity”. In the case of “QVQLVESGGGFDQAGGSLRLSCAASGSIFFYYVMGWYRQAPGKERELVAVISSGGGSTYYADSVKGRFTISRDNAKNTVYLQMNSLKPEDTAVYYCAAGTYYKFYYWGQGTQVTVSS”, the “polyreactivity (PSR sort gate)” value is on record as “high polyreactivity”. As for “QVQLVESGGGFFQAGGSLRLSCAASGSTFGYYTMGWYRQAPGKERELVAAISSGGSRTNYADSVKGRFTISRDNAKNTVYLQMNILKPEDTAVYYCARQSYGGTNRYYYWGQGTQVTVSS”, the “polyreactivity (PSR sort gate)” value is listed as “high polyreactivity”. As for “QVQLVESGGGFVEAGGSLRLSCAASGSIFRSYAMGWYRQAPGKERELVAAISSGDSTNYADTVKRRFTISRDNAQNTGYLQMNSLKPEDTADYYCAADQVQYTGYTEYDWGQGTQVTVSS”, the entry is “low polyreactivity”. Regarding “QVQLVESGGGFVPAGGSLRLSCAASGSTFIPYAMGWYRQAPGKERELVAAISSGGRTYYADSVKGRFTISRDNAKNTVYLQMNSVKPEDTAGYYCASTTSPSSARYYYWGQGTQVTVSS”, the “polyreactivity (PSR sort gate)” value was “high polyreactivity”. Under “QVQLVESGGGFVQAGGSLLVSCAASGFTFRYSAMGWYRQAPGKERELVAAIDQNSGRTYYADSGKGRFTISRDNAKNTVYLQMNSLKPEDTAVYYCNVGYPKVPAGSYDYWGQGTQVTVSS” stands “high polyreactivity”. As for “QVQLVESGGGFVQAGGSLRLICADSGRIFGRYAMGWYRQAPGKERELVAVISARGARTYYADSVKGRFTLSRDNAKNTDYLQMNSLKPEATEVYYCAVDQYATDDYWGQGTQVTVSS”, the entry is “high polyreactivity”; as for “QVQLVESGGGFVQAGGSLRLSCAACGITFNPNAMGWYRQAPGKERELVAAITANGGNTYYADSVKGRFTISRDNAKNTVYLQMNSLKPEDTAVYYCARRTRRSAGYGEYYYWGQGTQVTVSS”, “high polyreactivity”; as for “QVQLVESGGGFVQAGGSLRLSCAASGFIFYQYAMGWYRQAPGKERELVAAISWGGGSTYYADSVKGRFTISRDNAKNTVYLQMNSLKQEDTAVYYCNTDSAPYYWLSDNYDSCGQGTQVTVSS”, “low polyreactivity”.
